Article PMC8590011, “WRN helicase safeguards deprotected replication forks in BRCA2-mutated cancer cells”

Biological target: FLAG-WRN (wild type) (UniProt Q14191 1-1432)
Test: EMSA; 2 mM ATPgS, 5 mM MgCl2; affinity similar to the K577M/E84A mutant; Kd is only in Supp Fig 1e, value not in material; 35 mM Tris-HCl pH 7.5, 20 mM KCl, 5 mM MgCl2, 0.1 mg/ml BSA, 2 mM DTT, 5% glycerol, 2 mM ATPgS, 2 nM DNA, 15 min at RT; 5% 1x TBE native PAGE at 4 C
Conditions: protein: recombinant; tags: N-terminal FLAG (6xHis removed with TEV); label: 5' 32P on oligo B (as described for the CF preparation); four-strand regressed fork: AB partial duplex annealed to CD partial duplex

Sequence of FLAG-WRN (wild type) (Q14191 whole entry): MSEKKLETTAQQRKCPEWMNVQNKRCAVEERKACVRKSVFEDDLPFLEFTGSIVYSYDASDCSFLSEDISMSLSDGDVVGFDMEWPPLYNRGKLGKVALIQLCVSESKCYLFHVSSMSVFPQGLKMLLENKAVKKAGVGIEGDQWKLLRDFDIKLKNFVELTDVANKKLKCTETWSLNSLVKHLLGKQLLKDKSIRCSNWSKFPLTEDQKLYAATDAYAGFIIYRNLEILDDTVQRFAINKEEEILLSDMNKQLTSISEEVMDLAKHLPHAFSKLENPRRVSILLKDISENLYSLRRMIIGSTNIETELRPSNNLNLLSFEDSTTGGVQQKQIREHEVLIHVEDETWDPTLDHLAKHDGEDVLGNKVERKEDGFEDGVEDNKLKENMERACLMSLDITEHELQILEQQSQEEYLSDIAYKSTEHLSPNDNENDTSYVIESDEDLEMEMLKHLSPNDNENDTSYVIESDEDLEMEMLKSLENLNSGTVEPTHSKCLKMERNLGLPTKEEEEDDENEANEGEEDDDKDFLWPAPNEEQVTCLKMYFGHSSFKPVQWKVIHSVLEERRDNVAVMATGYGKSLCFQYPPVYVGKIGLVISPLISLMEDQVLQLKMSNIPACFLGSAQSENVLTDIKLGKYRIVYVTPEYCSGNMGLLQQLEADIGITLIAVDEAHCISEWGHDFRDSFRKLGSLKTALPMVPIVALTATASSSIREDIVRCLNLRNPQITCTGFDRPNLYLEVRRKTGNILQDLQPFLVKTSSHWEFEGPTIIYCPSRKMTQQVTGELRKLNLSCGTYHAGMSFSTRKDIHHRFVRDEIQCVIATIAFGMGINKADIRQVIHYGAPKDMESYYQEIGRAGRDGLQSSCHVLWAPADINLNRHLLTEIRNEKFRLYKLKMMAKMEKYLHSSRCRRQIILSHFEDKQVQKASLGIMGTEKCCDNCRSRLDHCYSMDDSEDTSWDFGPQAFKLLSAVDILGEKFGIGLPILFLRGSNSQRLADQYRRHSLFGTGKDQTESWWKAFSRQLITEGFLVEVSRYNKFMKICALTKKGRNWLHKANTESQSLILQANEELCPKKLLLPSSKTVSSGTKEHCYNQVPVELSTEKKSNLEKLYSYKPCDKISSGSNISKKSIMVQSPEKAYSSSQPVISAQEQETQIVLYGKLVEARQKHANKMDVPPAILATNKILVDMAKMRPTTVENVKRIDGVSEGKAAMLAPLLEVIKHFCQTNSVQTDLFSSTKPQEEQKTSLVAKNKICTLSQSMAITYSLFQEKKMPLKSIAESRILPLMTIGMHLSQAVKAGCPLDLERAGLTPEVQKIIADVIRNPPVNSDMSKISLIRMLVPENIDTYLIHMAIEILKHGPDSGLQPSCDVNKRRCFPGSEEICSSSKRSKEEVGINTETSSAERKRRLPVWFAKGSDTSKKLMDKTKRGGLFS

B1: chicken-foot (CF) reversed fork substrate, oligos A+B+C+D (structured_DNA)
DNA 1: CTTTAGCTGCATATTTACAACATGTTGACCTTCAGTACAATCTGCTCTGATGCCGCATAGTGTCATGCCAGAGCTTTGTAC
DNA 2: CGGGTGTCGGGGCGCATGACACTATGCGGCATCAGAGCAGATTGTACTGAAGGTCAACATGTTGTAAATATGCAGCTAAAG
DNA 3: GTACAAAGCTCTGGCATGATACTATGCGGCATCAGAGCAGATT
DNA 4: TCAGTACAATCTGCTCTGATGCCGCATAGTATCATGCGCCCCGACACCCG
modifications: iMe-isodC at position 38 of oligo A (written as C)
B1: binds.
